Experimental data: US20090291890A1 (published 2009)

Target: Factor X (FX) (Homo sapiens (Human)) (UniProt P00742)
Sequence (P00742 41-488 limits assumed): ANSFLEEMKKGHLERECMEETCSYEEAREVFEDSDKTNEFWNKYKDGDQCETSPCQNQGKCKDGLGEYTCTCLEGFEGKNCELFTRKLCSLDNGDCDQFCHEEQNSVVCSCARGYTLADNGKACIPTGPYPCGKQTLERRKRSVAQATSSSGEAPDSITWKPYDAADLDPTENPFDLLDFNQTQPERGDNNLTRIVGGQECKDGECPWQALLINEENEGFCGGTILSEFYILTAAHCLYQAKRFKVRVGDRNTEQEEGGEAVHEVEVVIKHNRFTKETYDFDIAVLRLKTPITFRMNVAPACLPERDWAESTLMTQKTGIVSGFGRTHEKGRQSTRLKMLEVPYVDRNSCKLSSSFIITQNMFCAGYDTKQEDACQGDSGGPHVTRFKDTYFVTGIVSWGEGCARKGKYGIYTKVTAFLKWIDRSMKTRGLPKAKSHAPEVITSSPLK

| kcat/KM, TF-Dependent Indirect Assay | Binder |
| --- | --- |
| 1.88e+07 M⁻¹ s⁻¹ | FVIIa variant Q366D (enzyme) ANAFLEELRPGSLERECKEEQCSFEEAREIFKDAERTKLFWISYSDGDQCASSPCQNGGSCKDQLQSYICFCLPAFEGRNCETHKDDQLICVNENGGCEQYCSDHTGTKRSCRCHEGYSLLADGVSCTPTVEYPCGKIPILEKRNASKPQGRIVGGKVCPKGECPWQVLLLVNGAQLCGGTLINTIWVVSAAHCFDKIKNWRNLIAVLGEHDLSEHDGDEQSRRVAQVIIPSTYVPGTTNHDIALLRLHQPVVLTDHVVPLCLPERTFSERTLAFVRFSLVSGWGQLLDRGATALELMVLNVPRLMTQDCLQQSRKVGDSPNITEYMFCAGYSDGSKDSCKGDSGGPHATHYRGTWYLTGIVSWGDGCATVGHFGVYTRVSQYIEWLQKLMRSEPRPGVLLRAPFP |
| 6.59e+07 M⁻¹ s⁻¹ | FVIIa variant Q366V (enzyme) ANAFLEELRPGSLERECKEEQCSFEEAREIFKDAERTKLFWISYSDGDQCASSPCQNGGSCKDQLQSYICFCLPAFEGRNCETHKDDQLICVNENGGCEQYCSDHTGTKRSCRCHEGYSLLADGVSCTPTVEYPCGKIPILEKRNASKPQGRIVGGKVCPKGECPWQVLLLVNGAQLCGGTLINTIWVVSAAHCFDKIKNWRNLIAVLGEHDLSEHDGDEQSRRVAQVIIPSTYVPGTTNHDIALLRLHQPVVLTDHVVPLCLPERTFSERTLAFVRFSLVSGWGQLLDRGATALELMVLNVPRLMTQDCLQQSRKVGDSPNITEYMFCAGYSDGSKDSCKGDSGGPHATHYRGTWYLTGIVSWGVGCATVGHFGVYTRVSQYIEWLQKLMRSEPRPGVLLRAPFP |
| 0 M⁻¹ s⁻¹ | FVIIa variant A292N/A294S (enzyme) ANAFLEELRPGSLERECKEEQCSFEEAREIFKDAERTKLFWISYSDGDQCASSPCQNGGSCKDQLQSYICFCLPAFEGRNCETHKDDQLICVNENGGCEQYCSDHTGTKRSCRCHEGYSLLADGVSCTPTVEYPCGKIPILEKRNASKPQGRIVGGKVCPKGECPWQVLLLVNGAQLCGGTLINTIWVVSAAHCFDKIKNWRNLIAVLGEHDLSEHDGDEQSRRVAQVIIPSTYVPGTTNHDIALLRLHQPVVLTDHVVPLCLPERTFSERTLAFVRFSLVSGWGQLLDRGNTSLELMVLNVPRLMTQDCLQQSRKVGDSPNITEYMFCAGYSDGSKDSCKGDSGGPHATHYRGTWYLTGIVSWGQGCATVGHFGVYTRVSQYIEWLQKLMRSEPRPGVLLRAPFP |
| 2.7e+07 M⁻¹ s⁻¹ | FVIIa variant Q366S (enzyme) ANAFLEELRPGSLERECKEEQCSFEEAREIFKDAERTKLFWISYSDGDQCASSPCQNGGSCKDQLQSYICFCLPAFEGRNCETHKDDQLICVNENGGCEQYCSDHTGTKRSCRCHEGYSLLADGVSCTPTVEYPCGKIPILEKRNASKPQGRIVGGKVCPKGECPWQVLLLVNGAQLCGGTLINTIWVVSAAHCFDKIKNWRNLIAVLGEHDLSEHDGDEQSRRVAQVIIPSTYVPGTTNHDIALLRLHQPVVLTDHVVPLCLPERTFSERTLAFVRFSLVSGWGQLLDRGATALELMVLNVPRLMTQDCLQQSRKVGDSPNITEYMFCAGYSDGSKDSCKGDSGGPHATHYRGTWYLTGIVSWGSGCATVGHFGVYTRVSQYIEWLQKLMRSEPRPGVLLRAPFP |
| 2.57e+07 M⁻¹ s⁻¹ | FVIIa variant R202S (enzyme) ANAFLEELRPGSLERECKEEQCSFEEAREIFKDAERTKLFWISYSDGDQCASSPCQNGGSCKDQLQSYICFCLPAFEGRNCETHKDDQLICVNENGGCEQYCSDHTGTKRSCRCHEGYSLLADGVSCTPTVEYPCGKIPILEKRNASKPQGRIVGGKVCPKGECPWQVLLLVNGAQLCGGTLINTIWVVSAAHCFDKIKNWSNLIAVLGEHDLSEHDGDEQSRRVAQVIIPSTYVPGTTNHDIALLRLHQPVVLTDHVVPLCLPERTFSERTLAFVRFSLVSGWGQLLDRGATALELMVLNVPRLMTQDCLQQSRKVGDSPNITEYMFCAGYSDGSKDSCKGDSGGPHATHYRGTWYLTGIVSWGQGCATVGHFGVYTRVSQYIEWLQKLMRSEPRPGVLLRAPFP |
| 4.77e+07 M⁻¹ s⁻¹ | FVIIa variant Q366E (enzyme) ANAFLEELRPGSLERECKEEQCSFEEAREIFKDAERTKLFWISYSDGDQCASSPCQNGGSCKDQLQSYICFCLPAFEGRNCETHKDDQLICVNENGGCEQYCSDHTGTKRSCRCHEGYSLLADGVSCTPTVEYPCGKIPILEKRNASKPQGRIVGGKVCPKGECPWQVLLLVNGAQLCGGTLINTIWVVSAAHCFDKIKNWRNLIAVLGEHDLSEHDGDEQSRRVAQVIIPSTYVPGTTNHDIALLRLHQPVVLTDHVVPLCLPERTFSERTLAFVRFSLVSGWGQLLDRGATALELMVLNVPRLMTQDCLQQSRKVGDSPNITEYMFCAGYSDGSKDSCKGDSGGPHATHYRGTWYLTGIVSWGEGCATVGHFGVYTRVSQYIEWLQKLMRSEPRPGVLLRAPFP |
| 5.32e+07 M⁻¹ s⁻¹ | FVIIa variant E394N/P395A/R396S (enzyme) ANAFLEELRPGSLERECKEEQCSFEEAREIFKDAERTKLFWISYSDGDQCASSPCQNGGSCKDQLQSYICFCLPAFEGRNCETHKDDQLICVNENGGCEQYCSDHTGTKRSCRCHEGYSLLADGVSCTPTVEYPCGKIPILEKRNASKPQGRIVGGKVCPKGECPWQVLLLVNGAQLCGGTLINTIWVVSAAHCFDKIKNWRNLIAVLGEHDLSEHDGDEQSRRVAQVIIPSTYVPGTTNHDIALLRLHQPVVLTDHVVPLCLPERTFSERTLAFVRFSLVSGWGQLLDRGATALELMVLNVPRLMTQDCLQQSRKVGDSPNITEYMFCAGYSDGSKDSCKGDSGGPHATHYRGTWYLTGIVSWGQGCATVGHFGVYTRVSQYIEWLQKLMRSNASPGVLLRAPFP |
| 5.5e+07 M⁻¹ s⁻¹ | FVIIa variant G318N (enzyme) ANAFLEELRPGSLERECKEEQCSFEEAREIFKDAERTKLFWISYSDGDQCASSPCQNGGSCKDQLQSYICFCLPAFEGRNCETHKDDQLICVNENGGCEQYCSDHTGTKRSCRCHEGYSLLADGVSCTPTVEYPCGKIPILEKRNASKPQGRIVGGKVCPKGECPWQVLLLVNGAQLCGGTLINTIWVVSAAHCFDKIKNWRNLIAVLGEHDLSEHDGDEQSRRVAQVIIPSTYVPGTTNHDIALLRLHQPVVLTDHVVPLCLPERTFSERTLAFVRFSLVSGWGQLLDRGATALELMVLNVPRLMTQDCLQQSRKVNDSPNITEYMFCAGYSDGSKDSCKGDSGGPHATHYRGTWYLTGIVSWGQGCATVGHFGVYTRVSQYIEWLQKLMRSEPRPGVLLRAPFP |
| 3.42e+07 M⁻¹ s⁻¹ | FVIIa variant Q366T (enzyme) ANAFLEELRPGSLERECKEEQCSFEEAREIFKDAERTKLFWISYSDGDQCASSPCQNGGSCKDQLQSYICFCLPAFEGRNCETHKDDQLICVNENGGCEQYCSDHTGTKRSCRCHEGYSLLADGVSCTPTVEYPCGKIPILEKRNASKPQGRIVGGKVCPKGECPWQVLLLVNGAQLCGGTLINTIWVVSAAHCFDKIKNWRNLIAVLGEHDLSEHDGDEQSRRVAQVIIPSTYVPGTTNHDIALLRLHQPVVLTDHVVPLCLPERTFSERTLAFVRFSLVSGWGQLLDRGATALELMVLNVPRLMTQDCLQQSRKVGDSPNITEYMFCAGYSDGSKDSCKGDSGGPHATHYRGTWYLTGIVSWGTGCATVGHFGVYTRVSQYIEWLQKLMRSEPRPGVLLRAPFP |
| 5.64e+07 M⁻¹ s⁻¹ | FVIIa variant Q366N (enzyme) ANAFLEELRPGSLERECKEEQCSFEEAREIFKDAERTKLFWISYSDGDQCASSPCQNGGSCKDQLQSYICFCLPAFEGRNCETHKDDQLICVNENGGCEQYCSDHTGTKRSCRCHEGYSLLADGVSCTPTVEYPCGKIPILEKRNASKPQGRIVGGKVCPKGECPWQVLLLVNGAQLCGGTLINTIWVVSAAHCFDKIKNWRNLIAVLGEHDLSEHDGDEQSRRVAQVIIPSTYVPGTTNHDIALLRLHQPVVLTDHVVPLCLPERTFSERTLAFVRFSLVSGWGQLLDRGATALELMVLNVPRLMTQDCLQQSRKVGDSPNITEYMFCAGYSDGSKDSCKGDSGGPHATHYRGTWYLTGIVSWGNGCATVGHFGVYTRVSQYIEWLQKLMRSEPRPGVLLRAPFP |
